According to paper PMC7860981, “Mitochondrial Enzymes of the Urea Cycle Cluster at the Inner Mitochondrial Membrane” (Frontiers in Physiology, 2020):

Target: T1, carbamylphosphate synthetase 1 (CPS1), endogenous in mouse liver mitochondria (mouse (endogenous in mouse liver …, UniProt Q8C196 39-1500))
T1 construct: carbamylphosphate synthetase 1, mouse, endogenous in liver mitochondria; also called CPSI; source: endogenous, mouse liver mitochondria, lysate (PBS with 2% CHAPS)
T1 sequence (looked up): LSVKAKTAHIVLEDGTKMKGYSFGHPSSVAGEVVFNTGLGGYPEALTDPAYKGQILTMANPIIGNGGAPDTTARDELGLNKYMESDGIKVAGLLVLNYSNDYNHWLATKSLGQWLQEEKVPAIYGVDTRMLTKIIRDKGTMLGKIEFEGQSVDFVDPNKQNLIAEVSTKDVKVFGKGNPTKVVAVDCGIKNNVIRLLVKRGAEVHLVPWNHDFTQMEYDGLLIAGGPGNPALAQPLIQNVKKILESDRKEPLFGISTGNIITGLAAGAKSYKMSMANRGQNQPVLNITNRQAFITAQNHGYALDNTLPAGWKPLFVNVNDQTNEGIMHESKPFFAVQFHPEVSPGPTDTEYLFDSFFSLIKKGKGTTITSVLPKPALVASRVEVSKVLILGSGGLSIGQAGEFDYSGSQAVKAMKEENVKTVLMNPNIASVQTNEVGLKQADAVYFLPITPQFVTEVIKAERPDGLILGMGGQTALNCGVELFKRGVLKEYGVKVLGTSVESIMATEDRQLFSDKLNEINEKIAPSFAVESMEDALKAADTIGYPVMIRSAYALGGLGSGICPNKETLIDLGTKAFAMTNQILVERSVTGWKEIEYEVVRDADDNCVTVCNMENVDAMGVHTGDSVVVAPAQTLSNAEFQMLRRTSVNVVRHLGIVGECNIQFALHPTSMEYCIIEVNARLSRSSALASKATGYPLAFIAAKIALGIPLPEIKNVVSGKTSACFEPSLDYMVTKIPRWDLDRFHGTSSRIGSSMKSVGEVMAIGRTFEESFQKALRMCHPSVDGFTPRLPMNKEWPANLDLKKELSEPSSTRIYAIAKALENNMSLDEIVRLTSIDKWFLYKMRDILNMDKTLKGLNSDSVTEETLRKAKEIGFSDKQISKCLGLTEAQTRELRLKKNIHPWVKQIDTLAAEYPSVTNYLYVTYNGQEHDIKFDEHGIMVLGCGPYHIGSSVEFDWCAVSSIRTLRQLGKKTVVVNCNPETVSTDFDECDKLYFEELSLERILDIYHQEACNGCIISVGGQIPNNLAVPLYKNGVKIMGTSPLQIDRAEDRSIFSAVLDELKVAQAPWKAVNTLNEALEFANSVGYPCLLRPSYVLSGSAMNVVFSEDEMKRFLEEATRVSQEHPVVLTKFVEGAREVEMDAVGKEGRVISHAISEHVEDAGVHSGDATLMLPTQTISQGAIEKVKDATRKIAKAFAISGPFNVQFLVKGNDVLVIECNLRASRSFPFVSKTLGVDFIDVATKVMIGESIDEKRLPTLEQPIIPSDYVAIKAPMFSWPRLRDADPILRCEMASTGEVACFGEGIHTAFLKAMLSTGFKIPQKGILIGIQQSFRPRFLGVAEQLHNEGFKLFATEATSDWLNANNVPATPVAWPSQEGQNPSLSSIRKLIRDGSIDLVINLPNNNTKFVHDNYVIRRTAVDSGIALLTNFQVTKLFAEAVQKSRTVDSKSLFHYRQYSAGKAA
Test: co-IP; competition experiment: purified recombinant mVS (10 to 30-fold molar excess over CPS1) mixed 1:1 (v/v) with mitochondrial lysate (2 mg/ml protein), added to magnetic beads cross-linked to anti-CPS1 antibodies; immunoblot for NAGS, densitometry of NAGS-M bands
Conditions: one partner purified

fold decrease of mNAGS co-immunoprecipitated with CPS1 in the presence of mVS: 5 fold
B1: recombinant mouse variable segment (mVS) of NAGS (domain or fragment, UniProt Q8R4H7 49-117, looked up)
chain: LSTARAHAEDAEGAKGRVQSPAVEEPSWTPLPTPLESPAPPAGRSLVQRDIQAFLNQCGASPGEARHWL
notes: Predicted molecular weight 9.675 kDa as printed
